Target: Arabidopsis thaliana Receptor-Like Protein 30, GFP-tagged (RLP30-GFP) (Arabidopsis thaliana) (UniProt Q9MA83)
Sequence of UniProt Q9MA83 (Q9MA83 31-786): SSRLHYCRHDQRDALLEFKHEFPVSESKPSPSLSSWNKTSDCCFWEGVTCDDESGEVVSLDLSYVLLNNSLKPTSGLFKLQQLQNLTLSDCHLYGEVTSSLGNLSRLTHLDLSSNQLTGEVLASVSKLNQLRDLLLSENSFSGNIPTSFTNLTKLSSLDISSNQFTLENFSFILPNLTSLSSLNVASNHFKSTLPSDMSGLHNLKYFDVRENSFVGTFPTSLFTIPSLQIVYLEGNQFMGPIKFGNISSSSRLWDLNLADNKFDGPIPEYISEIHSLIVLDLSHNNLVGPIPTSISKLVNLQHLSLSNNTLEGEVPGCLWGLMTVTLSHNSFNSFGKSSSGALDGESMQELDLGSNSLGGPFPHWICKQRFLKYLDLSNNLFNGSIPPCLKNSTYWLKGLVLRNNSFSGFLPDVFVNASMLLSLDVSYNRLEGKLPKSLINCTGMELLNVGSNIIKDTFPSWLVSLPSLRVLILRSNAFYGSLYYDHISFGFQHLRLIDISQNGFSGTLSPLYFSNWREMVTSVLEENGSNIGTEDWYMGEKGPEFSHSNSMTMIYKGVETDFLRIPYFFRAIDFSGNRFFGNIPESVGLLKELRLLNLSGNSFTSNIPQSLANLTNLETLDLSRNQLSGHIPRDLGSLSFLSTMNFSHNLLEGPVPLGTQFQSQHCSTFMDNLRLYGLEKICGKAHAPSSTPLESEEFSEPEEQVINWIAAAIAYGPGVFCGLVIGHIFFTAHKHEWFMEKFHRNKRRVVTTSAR

“SMALL CYSTEINE-RICH PROTEIN FROM S. SCLEROTIORUM, myc-tagged (SCP^Ss-myc) (ligand)” showed an ethylene production in Arabidopsis Col-0 plants, half-maximal induction (EC50); the protein applied was His-tagged SCP^Ss from P. pastoris, affinity purified via His-Trap columns of 26 nM.
